For the data set, the target named is PrPC, native state (recombinant human prion protein) (human, UniProt P04156 23-231).

B1: Apt2 (ssDNA)
DNA: GTTTTGTTACAGTTCGTTTCTTTTCCCTGTCTTGTTTTGTTGTCT
modifications: 5'-biotin
On to B1, for which the binding signal was 2.41 fluorescence ratio.

B2: Apt1 (ssDNA)
DNA: CTTACGGTGGGGCAATT
modifications: 5'-NH2
With B2, the binding signal was found to be 2.41 fluorescence ratio.

(Values after PMC3564804, “A Visual Dual-Aptamer Logic Gate for Sensitive Discrimination of Prion Diseases-Associated Isoform with Reusable Magnetic Microparticles and Fluorescence Quantum Dots”.)
